These results are taken from patent US20230416345A1, “NEW TYPE II COLLAGEN BINDING PROTEINS” (Navigo Proteins GmbH, priority 2020, published 2023).

Data set [1] addresses T1, hCol2 (human Type II collagen) (Homo sapiens, UniProt P02458).
T1 construct: purchased Chondrex
Nature of the data set: Binding analysis by SPR (Biacore 3000) vs human type II collagen. The following applies: dimers or tetramers; Langmuir 1:1 model. The method, then: (§1) Proteins with affinity tag were purified by affinity chromatography and size exclusion. After affinity chromatography purification using Strep-Tactin Superflow high capacity cartridges (IBA Lifesciences) a size exclusion chromatography (SEC) was performed using an Äkta system and a Superdex™ 200 HiLoad 16/600 column (Cytiva). Fused variants with Aflibercept were purified via MabSelect SuRe (Cytiva) affinity chromatography followed by a size exclusion chromatography (SEC) using an Äkta system and a Superdex™ 200 HiLoad 16/600 column (Cytiva). All chromatography processing steps were carried out on AKTA systems using matrices from Cytiva. Homogenous species of all purified ligands were obtained; no aggregation was detected. Following SOS-PAGE analysis positive fractions were pooled and their protein concentrations were measured. Further analysis included SOS-PAGE, SE-HPLC and RP-HPLC. Protein concentrations were determined by absorbance measurement at 280 nm using the molar absorbent coefficient. Reversed phase chromatography (RP-HPLC) was performed using a Dionex HPLC system and a PLRP-S (5 μm, 300 Å) column (Agilent). Analytic size exclusion chromatography (SE-HPLC) was performed using a Dionex HPLC system and a Superdex200 increase 5/150 GL (Cytiva). Binding of Collagen II was evaluated by SPR measurements using a Biacore 3000 system. Purified Collagen II was obtained from Chondrex.inc and VEGF-165 was obtained from Millipore. Targets were immobilized on a CM5-Sensor via NHS/EDC chemistry (immobilization level ˜1000 RU). Binding molecules were injected at different concentration and affinity was calculated by langmuir 1:1 binding model.
The purified proteins were immobilized on a CM-5 sensor chip (GE Healthcare) using NHS/EDC after PDEA activation resulting in 110-140 RU with a Biacore 3000 system (GE Healthcare). The chip was equilibrated with SPR running buffer (PBS 0.05% Tween pH 7.3). Upon binding, target analyte was accumulated on the surface increasing the refractive index. This change in the refractive index was measured in real time and plotted as response or resonance units versus time. The analytes were applied to the chip in serial dilutions with a flow rate of 30 μl/min. The association was performed for 120 seconds and the dissociation for 120 seconds. After each run, the chip surface was regenerated with 30 μl regeneration buffer (10 mM glycine pH 2.0) and equilibrated with running buffer.
Binding studies were carried out by the use of the BIAcore 3000 (GE Healthcare); data evaluation was operated via the BIAevaluation 3.0 software, provided by the manufacturer, using the Langmuir 1:1 model (RI=0). Evaluated dissociation constants (KD) were standardized against the immobilized protein and indicated. Shown is the change in refractive index measured in real time and plotted as response or resonance unit [RU] versus time [sec].
In general terms: SPR reads the build-up and loss of mass on a sensor chip optically.

Data set [2] deals with T2, recombinant human collagen type II (h Col II) (Homo sapiens, UniProt P02458).
T2 construct: purchased Chondrex CHX-20051
Nature of the data set: KD-determination by ELISA vs human collagen type II. The format is binding. The following applies: type II collagen; tetramers: of different species. As to the method: High binding plates (Greiner, 781061) were immobilized with 2.5 μg/ml recombinant human collagen type II (h Col II, Chondrex, CHX-20051), rabbit collagen type II (rbCol II, prepared from rabbit eyes), porcine collagen type II (p Col II, prepared from porcine eyes), human collagen type I, (h Col I, Sigma, C5483-1MG), human collagen type V (h Col V, Abcam, ab7537), human collagen type III (h Col Ill, Abcam, ab7535) and 67B89 (domain of fibronectin, produced in E. coli) respectively over night at 4° C. ELISA-plates were washed 3 times with PBST (PBS+ 0.1% Tween) and blocked with 3% BSA/0.5% Tween/PBS 2 h at RT. After washing with PBST, dilution series of 1.1 μM to 7×10^−4 nM of dimers (CID 211999, CID 212000), dilution series of 100 nM to 7×10^−6 nM of tetramers (CID 212001 and CID 212704) and dilution series of 10 μM to 2 nM of dimer (CID 212705) were incubated on ELISA-plates 1 h at rt. Plates were washed with PBST and incubated with biotinylated anti-StrepTag-ab (Antikörper-online, ABIN1573895) with a dilution of 1:10.000 for 1 h at rt. The binding was visualized with a-rabbit-IgG-HRP (Sigma, A9169) with a dilution of 1:10.000 and as substrate TMB Plus von KEM EN TEC Diagnostic, Kat-Nr. 4395.
Background: ELISA stands for enzyme-linked immunosorbent assay.

The nature of data set [3]: Soluble expression in Escherichia coli BL21(DE3). The format is physicochemical. The following applies: expression in E. coli BL21(DE3). As to the method:
Variants with affinity tag were expressed in Escherichia coli BL21(DE3) using a low copy plasmid system under regulation of a T7 promoter. Proteins were produced in soluble form after induction by lactose included in the medium (autoinduction medium). BL21 (DE3) competent cells were transformed with the expression plasmid, spread onto selective agar plates (kanamycin) and incubated overnight at 37° C. Precultures were inoculated from single colony in 3 ml 2×YT medium supplemented with 50 μg/ml kanamycin and cultured for 6 hours at 37° C. at 200 rpm in a conventional orbital shaker in culture tubes. […] Cultures were transferred to an orbital shaker and incubated at 30° C. and 200 rpm. Recombinant protein expression was induced by metabolizing glucose and subsequently allowing lactose to enter the cells. Cells were grown overnight for approx. 17 hours to reach a final OD600 of about 2-4. Before the harvest, the OD600 was measured, samples adjusted to 0.6/OD600 were withdrawn, pelleted and frozen at −20° C. To collect biomass cells were centrifuged at 12000×g for 15 min at 22° C. Pellets were weighed (wet weight). Cells were stored at −20° C. before processing.
as §1

T2 sequence (P02458 182-1241): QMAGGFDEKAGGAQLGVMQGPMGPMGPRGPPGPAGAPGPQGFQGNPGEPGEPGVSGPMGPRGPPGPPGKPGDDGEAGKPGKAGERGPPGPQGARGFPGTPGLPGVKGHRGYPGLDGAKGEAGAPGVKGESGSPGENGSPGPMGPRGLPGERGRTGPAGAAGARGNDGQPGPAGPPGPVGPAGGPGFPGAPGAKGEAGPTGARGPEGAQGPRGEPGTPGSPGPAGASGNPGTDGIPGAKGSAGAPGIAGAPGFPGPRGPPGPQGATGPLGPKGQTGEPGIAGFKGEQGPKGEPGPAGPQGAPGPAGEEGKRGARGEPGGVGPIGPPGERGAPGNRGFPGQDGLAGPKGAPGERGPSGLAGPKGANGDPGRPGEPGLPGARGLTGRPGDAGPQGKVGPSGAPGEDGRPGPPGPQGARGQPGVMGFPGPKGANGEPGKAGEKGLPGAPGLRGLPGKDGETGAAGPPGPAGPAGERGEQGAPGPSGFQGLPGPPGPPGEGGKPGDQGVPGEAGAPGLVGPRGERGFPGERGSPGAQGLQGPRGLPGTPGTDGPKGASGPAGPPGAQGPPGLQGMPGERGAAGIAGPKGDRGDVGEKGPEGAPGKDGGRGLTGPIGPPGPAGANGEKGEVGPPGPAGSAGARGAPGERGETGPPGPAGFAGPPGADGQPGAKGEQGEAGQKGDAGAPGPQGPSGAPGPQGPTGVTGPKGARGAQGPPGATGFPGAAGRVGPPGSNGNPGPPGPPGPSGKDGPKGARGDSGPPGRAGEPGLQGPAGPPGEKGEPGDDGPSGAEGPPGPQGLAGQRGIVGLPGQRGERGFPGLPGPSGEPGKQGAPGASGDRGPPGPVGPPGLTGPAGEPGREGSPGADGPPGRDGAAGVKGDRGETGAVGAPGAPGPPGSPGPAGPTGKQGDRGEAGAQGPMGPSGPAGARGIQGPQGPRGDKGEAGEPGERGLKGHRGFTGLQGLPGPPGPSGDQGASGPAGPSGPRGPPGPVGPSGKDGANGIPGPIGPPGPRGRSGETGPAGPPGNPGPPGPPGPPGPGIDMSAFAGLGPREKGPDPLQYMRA
T1 sequence (P02458 182-1241): as above

B1: CID 212000: dimer of SEQ ID NO: 2 (dimer with linker between the monomers) (protein)
chain: IAAKFDEAQSAADSEILHLPNLTEQQRHYFRRWLSDDPSVSTHILTQAQHLNDDQAPKGGGGSGGGGSGGGGSGGGGSIAAKFDEAQSAADSEILHLPNLTEQQRHYFRRWLSDDPSVSTHILTQAQHLNDDQAPKSAWSHPQFEK
modifications: Col2 binding protein (dimer of 211261) (CID212000)
For the molecule B1, the “Affinity [SPR] vs hCol2” value in data set [1] was 180 nM. In addition, the “binding affinity (KD) to type II collagen by ELISA, in words” value in data set [2] was 1-2-digit nM. Further, the “Solubility Soluble expression” value in data set [3] worked out at 100%.
